Earlier results as cited in article PMC4105053.

How the values were obtained:
[1] = target: MMOB (Methylococcus capsulatus) (UniProt P18797)
[2] = target: MMOR Fd (Methylococcus capsulatus) (UniProt P22868)
Chain of MMOR Fd (Methylococcus capsulatus) (P22868 1-98): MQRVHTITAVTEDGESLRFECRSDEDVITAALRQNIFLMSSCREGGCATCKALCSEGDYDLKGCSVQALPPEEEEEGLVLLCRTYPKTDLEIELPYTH

Chain of MMOH (P22869 whole entry): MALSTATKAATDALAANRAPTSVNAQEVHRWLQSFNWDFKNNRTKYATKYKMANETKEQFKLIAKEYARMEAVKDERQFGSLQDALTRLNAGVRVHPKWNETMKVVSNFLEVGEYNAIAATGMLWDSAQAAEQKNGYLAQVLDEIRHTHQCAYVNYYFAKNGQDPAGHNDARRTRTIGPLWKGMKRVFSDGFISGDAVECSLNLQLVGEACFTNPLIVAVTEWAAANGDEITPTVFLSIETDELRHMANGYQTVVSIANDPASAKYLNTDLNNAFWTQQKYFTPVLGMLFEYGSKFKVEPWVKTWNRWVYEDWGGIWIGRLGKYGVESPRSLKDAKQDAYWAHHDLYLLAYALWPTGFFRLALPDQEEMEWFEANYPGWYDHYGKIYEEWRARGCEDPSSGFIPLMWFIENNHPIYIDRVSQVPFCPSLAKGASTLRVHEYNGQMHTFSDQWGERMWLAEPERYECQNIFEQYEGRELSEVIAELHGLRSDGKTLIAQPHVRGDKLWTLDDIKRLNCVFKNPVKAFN
Chain of MMOH (P18798 2-389, further chain): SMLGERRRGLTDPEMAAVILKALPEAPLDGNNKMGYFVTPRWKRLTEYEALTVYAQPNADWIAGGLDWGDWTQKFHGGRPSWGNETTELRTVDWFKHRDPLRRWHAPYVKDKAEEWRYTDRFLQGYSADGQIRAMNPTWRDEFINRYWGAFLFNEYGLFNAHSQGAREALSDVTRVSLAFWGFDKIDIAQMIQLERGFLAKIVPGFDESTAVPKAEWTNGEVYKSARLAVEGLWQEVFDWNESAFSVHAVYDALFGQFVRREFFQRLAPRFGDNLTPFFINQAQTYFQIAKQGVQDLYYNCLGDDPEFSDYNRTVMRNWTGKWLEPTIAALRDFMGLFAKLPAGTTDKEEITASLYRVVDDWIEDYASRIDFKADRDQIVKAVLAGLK
Chain of MMOH (P11987 2-170, further chain): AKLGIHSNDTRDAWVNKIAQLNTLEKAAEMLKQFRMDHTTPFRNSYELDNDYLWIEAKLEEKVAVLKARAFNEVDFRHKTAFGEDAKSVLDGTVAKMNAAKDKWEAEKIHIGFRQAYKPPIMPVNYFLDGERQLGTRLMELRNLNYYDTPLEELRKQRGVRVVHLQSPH
Chain of MMOB (Methylococcus capsulatus) (P18797 whole entry): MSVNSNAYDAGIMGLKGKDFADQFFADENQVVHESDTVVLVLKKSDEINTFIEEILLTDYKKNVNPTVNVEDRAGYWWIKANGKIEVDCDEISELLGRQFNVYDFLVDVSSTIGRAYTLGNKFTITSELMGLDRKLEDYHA

Kd [1]: 550 nM
Kd [2]: 900 nM
Substance: MMOH (from UniProt P22869)
